Experimental data reported in patent publication US7691567B2, “Methods and compositions relating to fortilin, an anti-apoptotic molecule, and modulators of fortilin” (Board of Regents, the University of Texas System, priority 2000, dated 2010).
“Also recorded” adds a separate entry of the source. Like-named read-outs stand apart in the source and are kept apart here.

How the values were obtained:
HeLa cells = assay: Cell death assay: etoposide-induced apoptosis in transfected HeLa cells (apoptotic index); type: cell-based; conditions: HeLa cells overexpressing FLAG-tagged protein; 5 μg/mL etoposide 12 hours
Description: Cell death assay: The experiment was performed in duplicate and repeated at least three times. A total of […] HeLa cells were seeded in each well of a 4-well Lab-Teck™ chamber slides (Nalge Nunc International), and transfected with pFLAG containing Fortilin or other control cDNAs, using FuGENE6 (Roche). Twenty-four hours after the transfection, the cells were challenged by 5 μg/mL etoposide for 12 hours. Cells were stained for the FLAG-epitope using anti-FLAG antibody (M2, Sigma Co) and anti-mouse IgG conjugated to Rhodamine Red X (Jackson ImmunoResearch Laboratories). The nuclei were stained with DAPI (4,6-Diamidino-2-phenylindole, Sigma Co). Cells were then examined under a Zeiss AXIOSKOP fluorescent microscope (Carl Zeiss Ltd.), using appropriate filter sets. Cells that emitted red fluorescence were evaluated for their nuclear morphology. Condensed or fragmented nuclei were counted as apoptotic. An apoptotic index was then calculated as the number of red cells with apoptotic nuclear morphology divided by the number of total red cells counted and multiplied by 100.
Statistical analysis: For the analysis of statistical significance of apoptotic indices among cells transfected with different plasmids, Dunnett's T tests were performed. In all cases, the confidence intervals were 0.95 with the alpha value of 0.05. For the statistical evaluation of the significant linear trend between the amount of plasmids used for the transfection and apoptotic indices, ANOVA (Analysis of Variance) regression analysis was employed. […] For the analysis of statistical significance of possible correlation between the degree of malignancy and the indices of Fortilin immunoreactivity, Dunnett's multiple range tests were performed.

H1299 cells = assay: p53-mediated apoptosis in transfected H1299 cells (apoptotic index); type: cell-based; conditions: overexpression, thirty hours after transfection
Description: Because wild-type p53 can induce apoptosis, the ability of Fortilin to prevent or inhibit p53-mediated apoptosis was examined. H1299 cells were transfected with indicated combinations of mammalian expression constructs. Thirty hours after the transfection, cells were fixed and stained for beta-galactosidase activities. Cells that were round in shape with significant membrane irregularity were counted as apoptotic (FIG. 5). Apoptotic index was calculated as (Blue cells with apoptotic plasma membrane morphology)/(Total blue cells counted)×100.

U2OS cells [1] = assay: Bax-mediated apoptosis in transfected U2OS cells (apoptotic index); type: cell-based; conditions: for prevention of Bax mediated apoptosis (apoptotic index): U2OS cells cotransfected with Bax-pcDNA3, thirty hours after transfection
Description: The amount of LacZ-pFLAG was 1/10 to 1/20 (w/w) of total amounts of DNA added. Thirty hours after the transfection, cells were stained with X-gal. Blue cells represented cells expressing Bax, β-galactosidase and indicated proteins in question. At least 300 blue cells were counted and evaluated for plasma membrane morphology. Rounded cells were counted as apoptotic. Apoptotic index was calculated as the number of blue apoptotic cells divided by the number of total blue cells counted, expressed in percentage. Without the expression of Bax, there was a modest amount of background cell death noted (Lane 6). On the other hand, the presence of Bax caused 2 holds increase in the number of apoptotic cells (Lane 5). […] Taken together, the ability of Fortilin to inhibit Bax mediated apoptosis is mediated by its interaction with MCL1.

[2] = tested on: p53 transactivation of Bax gene; assay: p53 transactivation of Bax gene, p-Bax-RE-Luc luciferase reporter in H1299 cells; type: cell-based; conditions: twenty-four hours after transfection
Description: The ability of Fortilin to interfere with transactivation of the Bax gene by p53 was investigated. Non-small cell lung cancer cell line H1299 cells were transfected with p53-pcDNA3, LacZ-pFLAG, p-Bax-RE-Luc (a plasmid encoding the Luciferase gene under the control of the Bax responsive element) and pFLAG vector encoding Bcl-2, MCL1, Fortilin or truncated Fortilin as indicated in FIG. 6. Twenty-four hours after the transfection, luciferase activity was measured and normalized to the β-galactosidase activity, the latter representing transfection efficiency.
Next, studies were conducted to determine whether the inhibition was dosage dependent. H1299 cells were transfected with p53-pcDNA3, LacZ-pFLAG, p-Bax-RE-Luc and various amount of Fortilin-pFLAG. The total amount of DNA added was adjusted by the addition of empty pFLAG vector. Twenty-four hours after the transfection, luciferase activity was measured and normalized to the β-galactosidase activity.

caspase 3-like activity = assay: Assay of caspase 3-like activity in U2OS stable transfectants (Z-DEVD-AFC); type: cell-based
Description: Assay of caspase 3-like activity. Approximately 2×10^6 U2OS stable transfectants, either expressing Fortilin (U2OS.F) or harboring empty expression vector (U2OS.E), both of which have been characterized above, were challenged either with dimethyl sulfoxide (DMSO) (vehicle) or with etoposide at a final concentration of 10 μg/mL for 48 hours. Caspase 3-like activity was then determined as previously described (Mannick et al., 1999). In brief, cytosolic proteins were extracted in hypotonic cell lysis buffer (25 mM HEPES, pH 7.5, 5 mM MgCl2, 5 mM EDTA, 5 mM dithiothreitol, 0.05% phenylmethylsulfonyl fluoride [PMSF]; all from Sigma) by three cycles of freezing and thawing. The protein concentration of samples was determined by using a BioRad Bradford protein assay kit (BioRad). Ten micrograms of cytosolic extracts were added to caspase assay buffer (312.5 mM HEPES, pH 7.5, 31.25% sucrose, 0.3125% CHAPS) with Z-DEVD-AFC as substrates (CalBiochem, San Diego, Calif.). Release of 7-amido-4-(trifluoromethyl)coumarin (AFC) was quantified, after 2 hours of incubation at 37° C. (or, in the case of time course experiment, every 10 minutes), using a Fluoroskan system (Thermo-Labsystems, Helsinki, Finland) set to an excitation value of 355 nm and emission value of 525 nm. The results were expressed as relative fluorescence unit (R.F.U.) per microgram of protein.

U2OS cells [3] = conditions: U2OS stable transfectants of HA-tagged Fortilin or deletion mutants, 5 μg/mL etoposide 48 hours
Source text: Generation and characterization of U2OS cells stably expressing Fortilin. U2OS cells were transfected with empty pcDNA6, a mammalian expression vector containing a blasticidine resistance gene (Invitrogen, Carlsbad, Calif.), or with pcDNA6 vector encoding wild-type Fortilin, by using FuGENE6 (Roche Molecular Biochemicals) according to the manufacturer's instructions. Transfected cells were selected for approximately 3 weeks and characterized by Western blot analysis. For the cytotoxicity assay, U2OS cells stably expressing wild-type Fortilin (U2OS.F) and U2OS cells stably harboring empty pcDNA6 (U2OS.E) were seeded in a 96 well plate in quadruplicate. For the investigation of dose response, cells were challenged with various concentrations of etoposide (0-20 μg/mL) for 48 hours. For the time course study, cells were challenged with 5 μg/mL of etoposide and harvested after various incubation periods (0-96 hours). In both cases, the cell media were assayed for the lactate dehydrogenase (LDH) activity released from the cytosol of damaged cells, using a cytotoxicity detection kit (Roche Molecular Biochemicals) according to the manufacturer's instructions. The cytotoxicity index was calculated as follows: (LDH activity in the media−background LDH activity)÷(LDH activity in the medium of cells lysed by 1% Triton X-100−background LDH activity)×100.
Cell death assay. U2OS cells stably expressing Fortilin or its mutants were seeded in 96-well plates in triplicate. Cells were then challenged with 5 μg/mL of etoposide (Sigma) for 48 hours. Then the cell media were assayed for the lactate dehydrogenase (LDH) activity released from the cytosol of damaged cells, using a Cytotoxicity Detection Kit (Roche Molecular Biochemicals), according to the manufacturer's instructions. The cytotoxicity index was calculated as follows: (LDH activity in the media−background LDH activity)/(LDH activity in the medium of the cells lysed by 1% Triton X-100−background LDH activity)×100.
Statistical analysis. For analysis of the statistical significance of differences in cytotoxicity indices among cells stably transfected with Fortilin, its mutants or control plasmids, Student's t-test was performed using a commercial software (Minitab Inc., State College, Pa.). In all cases, a P-value less than 0.05 was considered to be statistically significant.

MCL1 [4] = target: T1, MCL1 (Homo sapiens, UniProt Q07820); assay: Yeast two-hybrid assay, X-gal filter lift; type: binding; conditions: Saccharomyces cerevisiae SFY526 cells
Source text: Yeast two-hybrid assay. Saccharomyces cerevisiae SFY526 cells (CloneTech) were cotransformed with (a) empty pAS2.1 vector or pAS2.1 vector containing a full-length MCL1 construct and (b) empty pACT2 vector or pACT2 vector containing FL1, the original clone isolated from yeast two-hybrid screening and representative of the nearly full-length Fortilin molecule (amino acids 5-172). FL1 was redesignated as FortilinΔ5-172. Transformed cells were selected on SD plates lacking tryptophan and leucine (SD/-Trp/-Leu plates) for 7 days and subjected to a X-gal filter lift assay as described above. The blue color that developed within 8 hours was considered to represent a positive interaction.
The yeast two-hybrid system was employed to evaluate any interaction between Fortilin and MCL1. Saccharomyces cerevisiae SFY526 cells were co-transformed with pAS2.1 or pAS2.1-MCL1 and pGAD GH or pGAD GH-FL1, the 5th-172st amino acids of Fortilin. Transformed cells were selected on SD/-Trp/-Leu plates. Grown colonies on these selection plates were subjected to a X-gal filter lift assay, as the reporter gene was […] under the control of a promoter containing the element recognized by the DNA binding domain. […] MCL1 consists of four BH (Bcl-2 homology) domains and two PEST (proline (P), glutamic acid (E), serine (S) and threonine (T)) sequences. “CHT” denotes the C-terminus Hydrophobic Tail. […]

MCL1 [5] = target: T1, MCL1; assay: In vitro pull-down assay of HA-tagged Fortilin or mutants with MCL1; type: binding; conditions: in vitro translated 35S-labeled proteins, anti-HA pull-down
MCL1 [6] = target: T1, MCL1; assay: In vivo coimmunoprecipitation assay in U2OS stable transfectants of Fortilin and mutants; conditions: anti-HA immunoprecipitation
Source text: In vivo coimmunoprecipitation assay. COS-7 cells (2.5×10^6) were cotransfected with pcDNA3-Fortilin-HA or pcDNA3 and with FLAG-MCL1/pFLAG-CMV or pFLAG-CMV vectors using FuGENE6 (Roche Molecular Biochemicals), according to the manufacturer's instructions. […] Formed complexes were precipitated by sheep anti-rat antibodies conjugated to Dynabead™ (Dynal USA); washed with Buffers A and B; eluted into SDS gel loading buffer; and subjected to SDS-PAGE, Western blot transfer and immuodetection with anti-HA (16B12; Covance, Richmond, Calif.) and anti-FLAG (M2; Sigma) antibodies. […] Cells were harvested by scraping, washed with chilled PBS, suspended in Buffer C (Buffer A supplemented with 0.02% NP-40), and lysed by a nitrogen cavitation method (PARR Instrument Co). […] Formed complexes were precipitated by sheep anti-rat antibodies conjugated to Dynabeads™ (Dynal USA); washed with Buffers C; eluted into SDS gel loading buffer; and subjected to SDS-PAGE, Western blot transfer and immuodetection with anti-HA (16B12; Covance, Richmond, Calif.) and anti-MCL1 (Santa Cruz Biotechnology) antibodies.

T1 sequence (Q07820 whole entry, the tested form may be a part): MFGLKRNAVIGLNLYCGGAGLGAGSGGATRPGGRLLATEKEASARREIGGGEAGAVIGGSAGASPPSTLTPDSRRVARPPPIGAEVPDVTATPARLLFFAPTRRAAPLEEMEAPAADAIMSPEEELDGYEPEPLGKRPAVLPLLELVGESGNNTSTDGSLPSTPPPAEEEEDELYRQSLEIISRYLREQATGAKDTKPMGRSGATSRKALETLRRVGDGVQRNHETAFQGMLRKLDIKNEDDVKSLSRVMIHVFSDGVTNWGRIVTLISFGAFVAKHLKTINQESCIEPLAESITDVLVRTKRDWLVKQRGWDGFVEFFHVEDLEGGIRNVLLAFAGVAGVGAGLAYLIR

Molecule: Bcl-xL: a Bcl-2 family protein, overexpressed as anti-apoptotic comparator
- prevention of Etoposide-induced apoptosis (apoptotic index) (HeLa cells): prevented HeLa cells from undergoing Etoposide-induced apoptosis in a statistically significant fashion

Molecule: Bcl-2: anti-apoptotic protein overexpressed as comparator [reference compound]
- suppression of p53 induced apoptosis (apoptotic index) (H1299 cells): statistically significant (p<0.001) suppression of p53-induced apoptosis; also recorded: statistically significant (p<0.001) suppression of p53 induced apoptosis

Molecule: Bax: pro-apoptotic protein expressed from Bax-pcDNA3 to induce apoptosis [reference compound]
- increase in the number of apoptotic cells (U2OS cells [1]; U2OS cells, Bax expression versus without Bax): 2 holds

Molecule: MCL1: Myeloid Cell Leukemia 1, a Bcl-2 homologue, anti-apoptotic protein [reference compound]
- suppression of p53 induced apoptosis (apoptotic index) (H1299 cells): statistically significant (p<0.001) suppression of p53-induced apoptosis; also recorded: statistically significant (p<0.001) suppression of p53 induced apoptosis
- prevention of Etoposide-induced apoptosis (apoptotic index) (HeLa cells): prevented HeLa cells from undergoing Etoposide-induced apoptosis in a statistically significant fashion
- prevention of Bax mediated apoptosis (apoptotic index) (U2OS cells [1]): prevented cells from undergoing Bax mediated apoptosis
- inhibition of p53 transactivation of Bax gene (luciferase normalized to β-galactosidase) [2]: inhibited p53 transactivation of the Bax gene

Molecule: COc1cc([C@@H]2c3cc4c(cc3[C@@H](O[C@@H]3O[C@@H]5CO[C@@H](C)O[C@H]5[C@H](O)[C@H]3O)[C@H]3COC(=O)[C@H]23)OCO4)cc(OC)c1O [etoposide, reference compound]
- caspase-3-like activity index (caspase 3-like activity; control U2OS.E cells (empty vector), etoposide 10 μg/mL 48 hours): 1488.1±58.7 R.F.U./μg protein
- increase in caspase-3-like activity (caspase 3-like activity; control U2OS.E cells, etoposide challenge vs no etoposide): 9.4 fold

B1: FortilinΔ46-172: Fortilin deletion mutant that lacks 26% of wild type Fortilin (protein)
chain: SLIGGNASAEGPEGEGTESTVITGVDIVMNHHLQETSFTKEAYKKYIKDYMKSIKGKLEEQRPERVKPFMTGAAEQIKHILANFKNYQFFIGENMNPDGMVALLDYREDGVTPYMIFFKDGLEMEKC
modifications: left off: small tags and cut ends
notes: Fortilin deletion mutant that lacks 26% of wild type Fortilin
- cytotoxicity index relative to control transfectants (U2OS cells [3]): significantly lower than the cytotoxicity index of control cells
- cytotoxicity index relative to control transfectants (U2OS cells [3]; listed as FortilinΔ45-172): still capable of protecting cells, albeit modestly, from etoposide-induced cell death

B2: FortilinΔ5-172: nearly full-length Fortilin molecule (amino acids 5-172) (protein)
chain: RDLISHDEMFSDIYKIREIADGLCLEVEGKMVSRTEGNIDDSLIGGNASAEGPEGEGTESTVITGVDIVMNHHLQETSFTKEAYKKYIKDYMKSIKGKLEEQRPERVKPFMTGAAEQIKHILANFKNYQFFIGENMNPDGMVALLDYREDGVTPYMIFFKDGLEMEKC
modifications: left off: small tags and cut ends
- interaction with MCL1 in yeast (X-gal activity) (MCL1 [4]): X-gal activity was observed
- interaction / co-immunoprecipitation with MCL1 in vitro (MCL1 [5]): interacted
- interaction / co-immunoprecipitation with MCL1 in vitro (MCL1 [5]; listed as Fortilin (5-172)): co-immunoprecipitated MCL1 in vitro
- co-immunoprecipitation of MCL1 in vivo (MCL1 [6]): co-immunoprecipitated MCL1
- cytotoxicity index relative to control transfectants (U2OS cells [3]): significantly lower
- cytotoxicity index relative to control transfectants (U2OS cells [3]; listed as fortilinΔ5-172): significantly lower than the cytotoxicity index of control cells

B3: FortilinΔ23-172: mutant of Fortilin representing 23rd-172nd amino acids of Fortilin (protein)
chain: IADGLCLEVEGKMVSRTEGNIDDSLIGGNASAEGPEGEGTESTVITGVDIVMNHHLQETSFTKEAYKKYIKDYMKSIKGKLEEQRPERVKPFMTGAAEQIKHILANFKNYQFFIGENMNPDGMVALLDYREDGVTPYMIFFKDGLEMEKC
- suppression of p53 induced apoptosis (apoptotic index) (H1299 cells; listed as Fortilin(23-172)): did not significantly prevent p53-mediated apoptosis; also recorded: did not significantly prevent p53 mediated apoptosis
- prevention of Bax mediated apoptosis (apoptotic index) (U2OS cells [1]): failed to prevent cells from undergoing Bax mediated apoptosis
- cytotoxicity index relative to control transfectants (U2OS cells [3]): could not prevent cells from undergoing etoposide-induced cell death and instead sensitized the cells to etoposide-induced cell death
- cytotoxicity index relative to control transfectants (U2OS cells [3]; listed as fortilinΔ23-172): significantly higher than that of control cells
- inhibition of p53 transactivation of Bax gene (luciferase normalized to β-galactosidase) ([2]; listed as truncated Fortilin (23-172)): inhibited p53 transactivation of the Bax gene
